Laboratory results as given in article PMC7600800.

Columns and labels:
Assay in all cases: anti-HA immunoprecipitation, SDS-PAGE and mass spectrometry
[1] = target: regulator of chromosome condensation isoform c; details: lysates of transfected HEK293 cells; parent: -
ruvB-like 1 = details: lysates of transfected HEK293 cells; parent: 3
[2] = target: dnaJ homolog subfamily A member 1; details: lysates of transfected HEK293 cells; parent: 7
lamin-B1 isoform 1 = details: lysates of transfected HEK293 cells; parent: -
[3] = target: heat shock 70 kDa protein 1-like; details: lysates of transfected HEK293 cells; parent: 13
[4] = target: heat shock-related 70 kDa protein 2; details: lysates of transfected HEK293 cells; parent: 14
[5] = target: 78 kDa glucose-regulated protein precursor; details: lysates of transfected HEK293 cells; parent: 39
[6] = target: T1, 14-3-3, endogenous, P63104; details: chain shown with the change; lysates of transfected HEK293 cells; parent: -
T1 chain: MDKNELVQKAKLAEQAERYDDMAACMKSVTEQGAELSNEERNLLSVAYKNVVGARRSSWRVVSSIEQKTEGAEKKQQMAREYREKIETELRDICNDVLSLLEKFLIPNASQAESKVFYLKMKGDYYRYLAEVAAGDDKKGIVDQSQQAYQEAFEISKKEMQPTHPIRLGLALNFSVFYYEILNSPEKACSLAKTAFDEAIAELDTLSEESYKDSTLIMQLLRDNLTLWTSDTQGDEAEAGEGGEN

## HA-tagged p27 wild type (from UniProt P46527) R30A; N31A; L32A
[1]
  other: number of unique peptides (unique peptides): 2
ruvB-like 1
  other: number of unique peptides (unique peptides): 2
[2]
  other: number of unique peptides (unique peptides): 4
lamin-B1 isoform 1
  other: number of unique peptides (unique peptides): 3
[3]
  other: number of unique peptides (unique peptides): 12
[4]
  other: number of unique peptides (unique peptides): 6
[5]
  other: number of unique peptides (unique peptides): 34

B1: HA-tagged p27 wild type, P46527 R30A; N31A; L32A (protein)
chain: MSNVRVSNGSPSLERMDARQAEHPKPSACAAAFGPVDHEELTRDLEKHCRDMEEASQRKWNFDFQNHKPLEGKYEWQEVEKGSLPEFYYRPPRPPKGACKVPAQESQDVSGSRPAAPLIGAPANSEDTHLVDPKTDPSDSQTGLAEQCAGIRKRPATDDSSTQNKRANRTEENVSDGSPNAGSVEQTPKKPGLRRRQT
[6]
  other: number of unique peptides (unique peptides): 4
